# From patent publication US20260070975A1
# Molecular target: c-Kit expressed on the cell surface of M-07e cells (human) (UniProt P10721)
# Assay: flow cytometry on M-07e cells
# Chain of c-Kit expressed on the cell surface of M-07e cells (human) (P10721 26-976): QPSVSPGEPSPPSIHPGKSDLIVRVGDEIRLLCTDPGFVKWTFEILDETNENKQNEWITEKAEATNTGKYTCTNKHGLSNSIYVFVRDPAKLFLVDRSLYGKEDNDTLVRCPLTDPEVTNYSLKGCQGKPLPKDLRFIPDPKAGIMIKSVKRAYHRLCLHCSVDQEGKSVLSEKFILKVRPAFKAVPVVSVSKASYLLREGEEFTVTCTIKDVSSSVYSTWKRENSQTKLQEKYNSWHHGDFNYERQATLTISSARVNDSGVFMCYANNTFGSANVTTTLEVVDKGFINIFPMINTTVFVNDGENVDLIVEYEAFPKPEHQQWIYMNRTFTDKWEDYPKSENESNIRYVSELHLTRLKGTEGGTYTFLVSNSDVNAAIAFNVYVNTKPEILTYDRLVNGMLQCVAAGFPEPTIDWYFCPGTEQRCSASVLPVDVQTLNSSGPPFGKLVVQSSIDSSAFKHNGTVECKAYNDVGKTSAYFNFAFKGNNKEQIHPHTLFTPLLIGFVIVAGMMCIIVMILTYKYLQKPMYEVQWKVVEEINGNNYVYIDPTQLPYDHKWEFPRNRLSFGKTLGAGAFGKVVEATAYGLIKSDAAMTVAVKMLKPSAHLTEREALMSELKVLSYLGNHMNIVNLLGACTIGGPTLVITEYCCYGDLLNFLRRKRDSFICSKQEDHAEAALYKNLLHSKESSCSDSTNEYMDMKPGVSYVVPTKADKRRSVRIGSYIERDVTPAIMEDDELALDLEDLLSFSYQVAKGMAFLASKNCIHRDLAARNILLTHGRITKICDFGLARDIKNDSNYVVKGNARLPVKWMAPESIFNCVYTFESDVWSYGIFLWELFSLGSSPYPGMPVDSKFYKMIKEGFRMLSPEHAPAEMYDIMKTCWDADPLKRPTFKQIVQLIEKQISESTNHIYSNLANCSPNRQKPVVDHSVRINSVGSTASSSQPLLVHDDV
substance,measurement,value
hIgG1 control (antibody),Measuring Fluorescent Intensity (MFI),85 MFI
same,Percent Positive for c-Kit on M-07e cells,2.3%
